The values that follow come from patent US20090305339A1, “Polypeptides With Laccase Activity” (VIALACTIA BIOSCIENCES (NZ) LIMITED, priority 2006, published 2009).

Series [1] in a line: Electrochemical analysis of immobilized laccase in the presence of DMP. Particulars: for electrochemical activity (current): DMP. The text has this:
RL5 was immobilized on BAS glassy carbon electrodes (FIGS. 3B,D) or on gold electrodes (FIGS. 3A,C). Both materials provide different enzyme orientations:
(i) the carbon electrode presents hydroxyl groups on the surface, providing a laccase substrate-like structure, which makes the enzyme to immobilize preferably with the active site facing the electrode surface; and
(ii) gold provides high hydrophobic surface that avoids the contact between the high-hydrophilic density amino acid domain of the enzyme and the electrode, being the hydrophobic domains which preferably orient towards the gold surface.
Some differences in the electrochemical measurements were observed due to the different orientation of the enzyme on the electrode in the presence of substrate (DMP) (FIGS. 3A,B). Thus, when RL5 laccase was immobilized on gold (FIG. 3A), the activity in the presence of oxygen was of 0.38 microamperes (dashed line), whereas in the absence of oxygen it was of 0.69 microamperes (dotted line). Most likely, the enzyme is using approximately half of the electrons for the reduction of the substrate and the other half from the oxygen in the solution; however, in absence of oxygen, all the electrons are used from the electrode, giving a higher measurement value. When using the carbon electrode (FIG. 3B), the enzyme orients in such a way that the measure, in the presence of oxygen, was 2.8 microamperes (dashed line). This could be explained by the fact that 93% of the electrons are used from the electrode, either because of different enzyme orientations, or because the immobilization on carbon kept higher amount (approximately 7 times) of laccase active. In the carbon electrode the T2 copper oxidization potential site, +500 vs. normal hydrogen electrode (NHE) was determined.
The electrochemical measurements have been performed with BAS CV-50W voltammetric analyzer. For gold surface experiments, a gold BAS disc electrode has been used. The electrode was cleaned according to the following procedure: the electrode was firstly immersed in “piranha” solution, containing 1 part of hydrogen peroxide 33% v and 3 parts of sulphuric acid 98%, during 5 minutes, after which the electrode was rinsed thoroughly with milliQ water, and polished with Buehler® micropolish gamma alumina #3, 0.05 micron size, during 5 minutes, on a polishing cloth, further immersed into a milliQ water solution and exposed to ultrasounds for 15 minutes. Then, the electrode was cleaned with sulphuric acid oxidization cyclic voltammetry for 30 minutes. […] After 180 minutes from the first addition, the laccase-modified gold electrode was measured in 100 mM phosphate buffer (pH 6.0) in the presence of oxygen. […]

A short description of series [2]: Oxidation of anthracene (HPLC, GC-MS/MS). Format: biochemical. The following applies: 50 μM anthracene, HOBt, pH 4.5, overnight, room temperature. On the procedure: Procedures for cloning, expression and purification of laccase are described in the reference: Beloqui, A., et al. (2006), which is made part of the disclosure of the present application.
HPLC conditions: the HPLC (Varian 9012) was provided with an automatic injector (Autosampler L2200, VWR Hitachi). 10 μL of sample reaction were injected to a C18 Nucleosil 3 μm, 80×4 mm, column (AV-2486, Analisis Vinicos S. A.). The mobile phase consisted of acetonitrile:water 70:30 (v/v) and the flow rate was controlled at 1 mL/min. A PhotoDiode Array Detector (Prostar 335, Varian) with the UV lamp fixed to 251 nm was used to detect the eluted compounds.

B1: RL5: polypeptide with laccase activity from bovine rumen metagenome library, amino acid sequence of FIG. 11 (protein)
chain: MIELEKLDFAKSVEGVEAFSTTRGQVDGRNAYSGVNLCDYVGDDALRVLDARLTLAMQLGVDLDDLVMPRQTHSCRVAVIDERFRALDIDEQEAALEGVDALVTRLQGIVIGVNTADCVPIVLVDSQAGIVAVSHAGWRGTVGRIAKAVVEEMCRQGATVDRIQAAMGPSICQDCFEVGDEVVEAFKKAHFNLNDIVVRNPATGKAHIDLRAANRAVLVAAGVPAANIVESQHCSRCEHTSFFSARRLGINSGRTFTGIYRK
modifications: Description of sequence Amino acid sequence of RL5 laccase 3217 to 2414 frame 1 - 262 amino acids (see Figure 11)
Consider B1, for which the “electrochemical activity (current)” value in series [1] (carbon electrode, presence of oxygen) is given as 2.8 microamperes; in series [1] (gold electrode, absence of oxygen), 0.69 microamperes; in series [1] (gold electrode, presence of oxygen) it was 0.38 microamperes. Moreover, the “T2 copper oxidization potential site” value in series [1] (carbon electrode, vs. normal hydrogen electrode (NHE)) is on record as “+500”. For the same molecule, the oxidation of anthracene result in series [2] is “efficiently oxidize anthracene to 9,10-antraquinone”.
